Data published in the supplement of paper PMC9112550, “Optimization of the antimicrobial peptide Bac7 by deep mutational scanning” (BMC Biology, 2022).
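Also: peptides expressed intracellularly from a pBAD plasmid library in pooled LB shake-flask culture, induced with 0.3% L-arabinose, DNA abundance read by NGS, three biological replicates, DESeq2 with apeglm shrinkage.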

These sequences were tested on Escherichia coli TOP10 (assay: shrunken log2 fold change of peptide-encoding DNA abundance (4.5 h post-induction vs induction); higher = less antimicrobial activity (less host growth inhibition)). Conditions: time post-induction: 4.5 h; library: site-saturation at positions 5, 18, 19, 20.
With RRIRVRPPRLPRPRPRPWAWPRP the “shrunken log2 fold change” value was -0.00558.
RRIRRRPPRLPRPRPRPDGNPRP was tested, and the “shrunken log2 fold change” value was 0.0694.
RRIRVRPPRLPRPRPRPKKVPRP was tested, and the “shrunken log2 fold change” value was -0.11.
In the case of RRIRKRPPRLPRPRPRPYVYPRP, the “shrunken log2 fold change” value is reported as -0.154.
RRIRKRPPRLPRPRPRPGTRPRP was tested, and the “shrunken log2 fold change” value was 0.165.
With RRIRQRPPRLPRPRPRPHMQPRP the “shrunken log2 fold change” value was -0.288.
With RRIRIRPPRLPRPRPRPVGEPRP the “shrunken log2 fold change” value was -0.0964.
For RRIRDRPPRLPRPRPRPCPQPRP, the “shrunken log2 fold change” value was -0.132.
For RRIRARPPRLPRPRPRPCKQPRP, the “shrunken log2 fold change” value was -0.0572.
In the case of RRIRRRPPRLPRPRPRPWKHPRP, the “shrunken log2 fold change” value is reported as -0.167.
RRIRSRPPRLPRPRPRPVGCPRP was tested, and the “shrunken log2 fold change” value was 0.281.
For RRIRCRPPRLPRPRPRPMLHPRP, the “shrunken log2 fold change” value was -0.378.
With RRIRSRPPRLPRPRPRPAHMPRP the “shrunken log2 fold change” value was -0.138.
With RRIRRRPPRLPRPRPRPGYEPRP the “shrunken log2 fold change” value was 0.0872.
With RRIRNRPPRLPRPRPRPTEAPRP the “shrunken log2 fold change” value was 0.21.
For RRIRSRPPRLPRPRPRPSRDPRP, the “shrunken log2 fold change” value was -0.0156.
With RRIRQRPPRLPRPRPRPGTHPRP the “shrunken log2 fold change” value was -0.00939.
For RRIRCRPPRLPRPRPRPNAQPRP, the “shrunken log2 fold change” value was 0.164.
For RRIRHRPPRLPRPRPRPMWYPRP, the “shrunken log2 fold change” value was -0.0997.
In the case of RRIRDRPPRLPRPRPRPAMSPRP, the “shrunken log2 fold change” value is reported as 0.184.
For RRIRHRPPRLPRPRPRPYAMPRP, the “shrunken log2 fold change” value was -0.416.
For RRIRVRPPRLPRPRPRPVPEPRP, the “shrunken log2 fold change” value was 0.564.
RRIRRRPPRLPRPRPRPTQCPRP was tested, and the “shrunken log2 fold change” value was 0.252.
For RRIRVRPPRLPRPRPRPPKYPRP, the “shrunken log2 fold change” value was -0.416.
For RRIRSRPPRLPRPRPRPPEHPRP, the “shrunken log2 fold change” value was 0.169.
In the case of RRIRGRPPRLPRPRPRPVEHPRP, the “shrunken log2 fold change” value is reported as 0.117.
In the case of RRIRGRPPRLPRPRPRPGLKPRP, the “shrunken log2 fold change” value is reported as 0.725.
RRIRVRPPRLPRPRPRPQIWPRP was tested, and the “shrunken log2 fold change” value was -0.192.
For RRIRHRPPRLPRPRPRPHRFPRP, the “shrunken log2 fold change” value was -0.162.
In the case of RRIRTRPPRLPRPRPRPNIQPRP, the “shrunken log2 fold change” value is reported as -0.586.
With RRIRMRPPRLPRPRPRPNAGPRP the “shrunken log2 fold change” value was 0.416.
For RRIRPRPPRLPRPRPRPKHIPRP, the “shrunken log2 fold change” value was -0.301.
In the case of RRIRERPPRLPRPRPRPFNYPRP, the “shrunken log2 fold change” value is reported as -0.273.
In the case of RRIRGRPPRLPRPRPRPVDPPRP, the “shrunken log2 fold change” value is reported as 0.107.
For RRIRIRPPRLPRPRPRPQGIPRP, the “shrunken log2 fold change” value was -0.012.
With RRIRTRPPRLPRPRPRPYWDPRP the “shrunken log2 fold change” value was -0.0758.
In the case of RRIRNRPPRLPRPRPRPICYPRP, the “shrunken log2 fold change” value is reported as -0.818.
For RRIRTRPPRLPRPRPRPHREPRP, the “shrunken log2 fold change” value was -0.075.
In the case of RRIRVRPPRLPRPRPRPMPMPRP, the “shrunken log2 fold change” value is reported as 0.0529.
RRIRTRPPRLPRPRPRPLVCPRP was tested, and the “shrunken log2 fold change” value was 0.0682.
RRIRFRPPRLPRPRPRPYGEPRP was tested, and the “shrunken log2 fold change” value was -0.0721.
RRIRKRPPRLPRPRPRPHYMPRP was tested, and the “shrunken log2 fold change” value was -0.0279.
For RRIRFRPPRLPRPRPRPSYGPRP, the “shrunken log2 fold change” value was -0.37.
RRIRWRPPRLPRPRPRPIDRPRP was tested, and the “shrunken log2 fold change” value was -0.156.
With RRIRPRPPRLPRPRPRPQLYPRP the “shrunken log2 fold change” value was -0.0926.
With RRIRVRPPRLPRPRPRPCCMPRP the “shrunken log2 fold change” value was -0.181.
With RRIRARPPRLPRPRPRPIKTPRP the “shrunken log2 fold change” value was 0.213.
RRIRTRPPRLPRPRPRPHWMPRP was tested, and the “shrunken log2 fold change” value was -0.243.
RRIRARPPRLPRPRPRPVDQPRP was tested, and the “shrunken log2 fold change” value was 0.607.
For RRIRKRPPRLPRPRPRPFCSPRP, the “shrunken log2 fold change” value was -0.00787.
For RRIRCRPPRLPRPRPRPNMIPRP, the “shrunken log2 fold change” value was -0.829.
In the case of RRIRYRPPRLPRPRPRPAVWPRP, the “shrunken log2 fold change” value is reported as 0.11.
With RRIRCRPPRLPRPRPRPFWWPRP the “shrunken log2 fold change” value was 0.925.
In the case of RRIRHRPPRLPRPRPRPVAHPRP, the “shrunken log2 fold change” value is reported as -0.00816.
With RRIRIRPPRLPRPRPRPYRPPRP the “shrunken log2 fold change” value was -0.0527.
